Data from patent US20030091990A1, “Methods and compositions involving thymidine phosphorylase as a marker for HIV infection, aids progression, and drug resistance” (priority 2001, published 2003).

Tested on: resting CD4+ T lymphocytes
Assay: Affymetrix GeneChip Expression Analysis of resting CD4+ T lymphocytes
Format: cell-based
Conditions: incubated 3 hrs at 37° C.; Human Genome U95A chips; fold changes from +2.0 to -2.0 removed; comparison with Mock control
Protocol: To investigate the changes in RNA expression of resting CD4+ T lymphocytes by HIV-1, Affymetrix GeneChip® Expression Analysis was done. Purified resting CD4+ T lymphocytes (purity of >98%) prepared from a healthy donor by StemCell™ magnetic column technique were incubated with HIV-1213 ((M.O.I. 0.5-1), IL-16 (10 ng/ml), or MHC II peptide (50 μM, RK1) in a 37° C. humidified 5% CO2 incubator for 3 hrs). Then, total cytoplasmic RNA was extracted by using RNA isolation kit (Qiagen) according to the manufacturer's instructions. Isolated RNA was applied on the Human Genome U95A chips, containing 12,626 full-length genes (Affymetrix, Santa Clara, Calif.). Data were generated from hybridization intensities measured on GeneChip expression probe arrays and analyzed by GeneChip software provided by Affymetrix. In order to compare gene expression levels between two samples (Mock, HIV213, IL-16 and MHC II peptide), Comparison Analysis was performed on data from two separate probe array experiments by determining the relative changes in abundance for each transcript. All moderate increase, moderate decrease and no change were removed. All fold changes from +2.0 to −2.0 were also removed. […] TP (PDECGF) was one of the molecules that have shown great change in its mRNA level when CD4 T cells were signalled with HIV (48 fold change). […]

B1: IL-16: IL-16 (10 ng/ml) incubated with resting CD4+ T lymphocytes (protein, UniProt Q14005 1212-1332, looked up)
Interleukin-16: SAASASAASDVSVESTAEATVCTVTLEKMSAGLGFSLEGGKGSLHGDKPLTINRIFKGAASEQSETVQPGDEILQLGGTAMQGLTRFEAWNIIKALPDGPVTIVIRRKSLQSKETTAAGDS
genes changed vs. Mock: 84 genes
